Experimental data reported in US20060240012A1.

Key:
[1] = target: human interleukin-6 (human) (UniProt P05231); test: SPR (BIAcore), purified scFv
[2] = target: human interleukin-6 (human) (UniProt P05231); test: SPR (BIAcore), human IL-6 immobilised, IL6gk3-2 scFv injected at 10 to 80 nM

Sequence of UniProt P05231 (P05231 29-212 limits assumed): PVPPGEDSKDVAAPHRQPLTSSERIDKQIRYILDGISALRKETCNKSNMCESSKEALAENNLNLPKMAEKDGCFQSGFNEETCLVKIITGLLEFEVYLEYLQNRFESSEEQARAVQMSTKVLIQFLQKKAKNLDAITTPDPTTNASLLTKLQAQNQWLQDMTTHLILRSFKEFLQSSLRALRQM

B1: IL6gk3-2 scFv (purified soluble single chain Fv of the human anti-human IL-6 antibody clone IL6gk3-2) (scFv, part only; not given: linker and E-tag, V domains shown, not shown: another chain or arm of the molecule; small tags and cut ends)
VH: QVNLRESGGDLVKPGGSLRLSCAASGFTFRKYYMAWIRQAPGKGPEWLSTISNSGDIIDYADSVRGRFSISRDNAQKSLYLQMTSLRPDDSAIYYCAREYFFSFDVWGRGTMVTVSS
VL: DIVMTQSPSSVSASVGDRVTIFCRASQDIRNWVAWYQQKPGEAPKLLIYDGSSLQSGVPSRFSGSGSGTEFTLTISSLQPEDFATYYCQQSDSTPITFGQGTRLEIK
Kd [1]: 13 nM | koff [2]: 0.0008 s⁻¹ | kon [2]: 60000 M⁻¹ s⁻¹
